Test results published in publication PMC11766367, “Structure-Function Relationship of the β-Hairpin of Thermus thermophilus HB27 Laccase” (International Journal of Molecular Sciences, 2025).

How the values were obtained:
purified protein = substrate: COc1ccccc1O; test: purified protein; details: pH 6.0, 61.5 °C, free copper contradictory: caption says without, methods and text suggest 1 mM CuSO4 added
[1] = substrate: CCn1c(=NN=c2sc3cc(S(=O)(=O)O)ccc3n2CC)sc2cc(S(=O)(=O)O)ccc21; test: spectrophotometric oxidation assay, Michaelis-Menten fit; type: biochemical, Thermus thermophilus; details: pH 6.0, 61.5 °C, free copper contradictory: caption says without, methods and text suggest 1 mM CuSO4 added
Description: (§1) spectrophotometric oxidation assay, Michaelis-Menten fit on Tth-Lac

[2] = substrate: COc1cc(C=NN=Cc2cc(OC)c(O)c(OC)c2)cc(OC)c1O; test: as above; type: biochemical, Thermus thermophilus; details: pH 6.0, 61.5 °C, free copper contradictory: caption says without, methods and text suggest 1 mM CuSO4 added
Description: as §1

[3] = substrate: COc1cccc(OC)c1O; test: as above; type: biochemical, Thermus thermophilus; details: pH 7.0, 61.5 °C, free copper contradictory: caption says with, methods and text suggest without, pH 7.0
Description: as §1

B1: Tth-Lac (Thermus thermophilus HB27) (protein)
chain: QGPSFPEPKVVRSQGGLLSLKLSATPTPLALAGQRATLLTYGGSFPGPTLRVRPRDTVRLTLENRLPEPTNLHWHGLPISPKVDDPFLEIPPGESWTYEFTVPKELAGTFWYHPHLHGRVAPQLFAGLLGALVVESSLDAIPELREAEEHLLVLKDLALQGGRPAPHTPMDWMNGKEGDLVLVNGALRPTLVAQKATLRLRLLNASNARYYRLALQDHPLYLIAADGGFLEEPLEVSELLLAPGERAEVLVRLRKEGRFLLQALPYDRGAMGMMDMGGMAHAMPQGPSRPETLLYLIAPKNPKPLPLPKALSPFPTLPAPVVTRRLVLTEDMMAARFFINGQVFDHRRVDLKGQAQTVEVWEVENQGDMDHPFHLHVHPFQVLSVGGRPFPYRAWKDVVNLKAGEVARLLVPLREKGRTVFHCHIVEHEDRGMMGVLEVG
notes: signal peptide removed, gene starts at residue 23; pET-22b(+), E. coli BL21 Gold (DE3) with CuSO4; heat step and CM-Sepharose; no tag mentioned; monomer
Km (purified protein): 21 ± 2 µM
Vmax (purified protein): 5.14 ± 0.11 µmol/mg/min
Km ([1]; pH 6.0): 1030 ± 160 µM
Vmax ([1]; pH 6.0): 28.48 ± 1.93 µmol/mg/min
Km ([2]; pH 6.0): 6.17 ± 0.5 µM
Vmax ([2]; pH 6.0): 13.92 ± 0.31 µmol/mg/min
Km [3]: 880 ± 80 µM
Vmax [3]: 6.00 ± 0.24 µmol/mg/min

B2: Tth-Lac (Thermus thermophilus HB27; A304G/DEL295-303) (protein)
chain: QGPSFPEPKVVRSQGGLLSLKLSATPTPLALAGQRATLLTYGGSFPGPTLRVRPRDTVRLTLENRLPEPTNLHWHGLPISPKVDDPFLEIPPGESWTYEFTVPKELAGTFWYHPHLHGRVAPQLFAGLLGALVVESSLDAIPELREAEEHLLVLKDLALQGGRPAPHTPMDWMNGKEGDLVLVNGALRPTLVAQKATLRLRLLNASNARYYRLALQDHPLYLIAADGGFLEEPLEVSELLLAPGERAEVLVRLRKEGRFLLQALPYDRGAMGGMPQGPSRPETLLYLIAPKNPKPLPLPKALSPFPTLPAPVVTRRLVLTEDMMAARFFINGQVFDHRRVDLKGQAQTVEVWEVENQGDMDHPFHLHVHPFQVLSVGGRPFPYRAWKDVVNLKAGEVARLLVPLREKGRTVFHCHIVEHEDRGMMGVLEVG
notes: as for B1
Km (purified protein; P1Tth-Lac): 49.9 ± 6 µM
Vmax (purified protein; P1Tth-Lac): 9.57 ± 0.47 µmol/mg/min
Km ([1]; P1Tth-Lac, pH 6.0): 1090 ± 160 µM
Vmax ([1]; P1Tth-Lac, pH 6.0): 21.48 ± 1.81 µmol/mg/min
Km ([3]; P1Tth-Lac): 430 ± 60 µM
Vmax ([3]; P1Tth-Lac): 1.45 ± 0.07 µmol/mg/min

B3: Tth-Lac (Thermus thermophilus HB27; DEL292-307/G291S) (protein)
chain: QGPSFPEPKVVRSQGGLLSLKLSATPTPLALAGQRATLLTYGGSFPGPTLRVRPRDTVRLTLENRLPEPTNLHWHGLPISPKVDDPFLEIPPGESWTYEFTVPKELAGTFWYHPHLHGRVAPQLFAGLLGALVVESSLDAIPELREAEEHLLVLKDLALQGGRPAPHTPMDWMNGKEGDLVLVNGALRPTLVAQKATLRLRLLNASNARYYRLALQDHPLYLIAADGGFLEEPLEVSELLLAPGERAEVLVRLRKEGRFLLQALPYDRSGPSRPETLLYLIAPKNPKPLPLPKALSPFPTLPAPVVTRRLVLTEDMMAARFFINGQVFDHRRVDLKGQAQTVEVWEVENQGDMDHPFHLHVHPFQVLSVGGRPFPYRAWKDVVNLKAGEVARLLVPLREKGRTVFHCHIVEHEDRGMMGVLEVG
notes: as for B1
Km (purified protein; C1Tth-Lac): 45 ± 8 µM
Vmax (purified protein; C1Tth-Lac): 9.47 ± 0.46 µmol/mg/min
Km ([1]; C1Tth-Lac): 280 ± 60 µM
Vmax ([1]; C1Tth-Lac): 12.34 ± 0.91 µmol/mg/min
Km ([2]; C1Tth-Lac): 7.83 ± 1.35 µM
Vmax ([2]; C1Tth-Lac): 14.60 ± 0.80 µmol/mg/min

B4: Tth-Lac (Thermus thermophilus HB27; A292G/DEL293-307) (protein)
chain: QGPSFPEPKVVRSQGGLLSLKLSATPTPLALAGQRATLLTYGGSFPGPTLRVRPRDTVRLTLENRLPEPTNLHWHGLPISPKVDDPFLEIPPGESWTYEFTVPKELAGTFWYHPHLHGRVAPQLFAGLLGALVVESSLDAIPELREAEEHLLVLKDLALQGGRPAPHTPMDWMNGKEGDLVLVNGALRPTLVAQKATLRLRLLNASNARYYRLALQDHPLYLIAADGGFLEEPLEVSELLLAPGERAEVLVRLRKEGRFLLQALPYDRGGGPSRPETLLYLIAPKNPKPLPLPKALSPFPTLPAPVVTRRLVLTEDMMAARFFINGQVFDHRRVDLKGQAQTVEVWEVENQGDMDHPFHLHVHPFQVLSVGGRPFPYRAWKDVVNLKAGEVARLLVPLREKGRTVFHCHIVEHEDRGMMGVLEVG
notes: as for B1
Km (purified protein; C2Tth-Lac): 37 ± 5 µM
Vmax (purified protein; C2Tth-Lac): 3.98 ± 0.21 µmol/mg/min
Km ([1]; C2Tth-Lac, pH 6.0): 940 ± 190 µM
Vmax ([1]; C2Tth-Lac, pH 6.0): 14.80 ± 1.43 µmol/mg/min
Km ([2]; C2Tth-Lac, pH 6.0): 7.2 ± 1.13 µM
Vmax ([2]; C2Tth-Lac, pH 6.0): 7.20 ± 0.46 µmol/mg/min
Km ([3]; C2Tth-Lac): 220 ± 30 µM
Vmax ([3]; C2Tth-Lac): 0.87 ± 0.4 µmol/mg/min
